Measurements taken from US20120027722A1 (MEDICAL RESEARCH COUNCIL, published 2012).
Positions count from the first letter of the chain named. In names and notes the source's numbering stands. Read-outs that look alike come from different tables or passages of the source. No end group written: not given here.

Tests used:
[1] = target: HCV E1E2 glycoproteins, genotype 2a isolate JFH1 (on HCVpp) (Hepatitis C virus genotype 2a (JFH1), UniProt Q99IB8 192-383; Q99IB8 384-750); experiment: cell-based or functional assay
Chain of HCV E1E2 glycoproteins, genotype 2a isolate JFH1 (on HCVpp) (Q99IB8 192-383 limits assumed, chain 1 of 2): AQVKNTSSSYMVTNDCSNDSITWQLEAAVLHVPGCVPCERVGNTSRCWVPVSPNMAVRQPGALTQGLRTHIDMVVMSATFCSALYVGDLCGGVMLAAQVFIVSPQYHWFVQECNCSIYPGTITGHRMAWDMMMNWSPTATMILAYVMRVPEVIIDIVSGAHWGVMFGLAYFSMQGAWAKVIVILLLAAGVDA
Chain of HCV E1E2 glycoproteins, genotype 2a isolate JFH1 (on HCVpp) (Q99IB8 384-750 limits assumed, chain 2 of 2): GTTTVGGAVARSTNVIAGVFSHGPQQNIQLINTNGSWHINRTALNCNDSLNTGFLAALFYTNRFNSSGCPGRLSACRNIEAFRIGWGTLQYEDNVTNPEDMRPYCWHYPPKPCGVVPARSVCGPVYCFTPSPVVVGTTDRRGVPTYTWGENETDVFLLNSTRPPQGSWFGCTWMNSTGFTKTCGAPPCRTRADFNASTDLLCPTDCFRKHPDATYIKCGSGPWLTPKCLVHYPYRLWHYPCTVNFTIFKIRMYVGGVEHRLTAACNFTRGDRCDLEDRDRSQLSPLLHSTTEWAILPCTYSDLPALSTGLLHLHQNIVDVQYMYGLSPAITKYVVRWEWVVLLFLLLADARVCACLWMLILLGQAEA

[2] = target: HCV E1E2 glycoproteins, genotype 3a isolate F4/2-35 (on HCVpp) (Hepatitis C virus genotype 3a (F4/2-35)); experiment: cell-based or functional assay
[3] = target: HCV E1E2 glycoproteins, isolate 2A2.4 (on HCVpp) (Hepatitis C virus genotype 2 (2A2.4)); experiment: cell-based or functional assay
[4] = target: HCV E1E2 glycoproteins, isolate 4.21.16 (on HCVpp) (Hepatitis C virus genotype 4 (4.21.16)); experiment: cell-based or functional assay
[5] = target: HCV E1E2 glycoproteins, isolate 6.5.8 (on HCVpp) (Hepatitis C virus genotype 6 (6.5.8)); experiment: cell-based or functional assay
[6] = target: HCV E1E2 glycoproteins, isolate 1A20.8 (on HCVpp) (Hepatitis C virus genotype 1 (1A20.8)); experiment: cell-based or functional assay
[7] = target: HCV E1E2 glycoproteins, isolate 1B5.23 (on HCVpp) (Hepatitis C virus genotype 1 (1B5.23)); experiment: cell-based or functional assay
[8] = target: HCV E1E2 glycoproteins, isolate 2B1.1 (on HCVpp) (Hepatitis C virus genotype 2 (2B1.1)); experiment: cell-based or functional assay
[9] = target: HCV E1E2 glycoproteins, isolate 5.15.11 (on HCVpp) (Hepatitis C virus genotype 5 (5.15.11)); experiment: cell-based or functional assay
[10] = target: T1, AP33 mimotope peptide H6; experiment: peptide ELISA: biotinylated peptide on streptavidin plate, COS7 supernatant, anti-human kappa HRP, OD 655 nm
T1 construct: captured on streptavidin plates; also called mimotope H6; H6 peptide
T1 peptide: VELRNLGGTWRPGSGK-biotin

[11] = target: T2, E2 peptide C2 (Hepatitis C virus, genotype 1a (Table 5), not fully specified (residue 16, C-terminus)); experiment: peptide ELISA: biotinylated peptide on streptavidin plate, COS7 supernatant, normalised as percentage of H6 binding
T2 peptide: QLINTNGSWHVNGSGK

[12] = target: T1, AP33 mimotope peptide H6; experiment: peptide ELISA: biotinylated peptide on streptavidin plate, COS7 supernatant, anti-human kappa HRP, OD 655 nm

B1: chimeric AP33 antibody (Vh/Vl) (antibody, V domains shown)
VH: EVQLQESGPSLVKPSQTLSLTCSVTGDSITSGYWNWIRKFPGNKLEYMGYISYSGSTYYNLSLRSRISITRDTSKNQYYLQLNSVTTEDTATYYCALITTTTYAMDYWGQGTSVTVS
VL: NIVLTQSPVSLAVSLGQRATISCRASESVDGYGNSFLHWFQQKPGQPPKLLIYLASNLNSGVPARFSGSGSRTDFTLTIDPVEADDAATYYCQQNNVDPWTFGGGTKLEIK
notes: also called Vh/V1; chimeric antibody
[1]
  IC50 of HCVpp infection (Huh-7, luciferase): 1.1 µg/mL
  IC90 of HCVpp infection (Huh-7, luciferase): 9.31 µg/mL
[2]
  IC50 of HCVpp infection (Huh-7, luciferase): 0.48 µg/mL
  IC90 of HCVpp infection (Huh-7, luciferase): 3.2 µg/mL
[3]
  IC50 of HCVpp infection (Huh-7, luciferase): 0.88 µg/mL
  IC90 of HCVpp infection (Huh-7, luciferase): 6.67 µg/mL
[4]
  IC50 of HCVpp infection (Huh-7, luciferase): < 0.137 µg/mL
  IC90 of HCVpp infection (Huh-7, luciferase): 0.83 µg/mL
[5]
  IC50 of HCVpp infection (Huh-7, luciferase): < 0.137 µg/mL
  IC90 of HCVpp infection (Huh-7, luciferase): 3.7 µg/mL
[6]
  IC50 of HCVpp infection (Huh-7, luciferase): 1.1 µg/mL
  IC90 of HCVpp infection (Huh-7, luciferase): 11.5 µg/mL
[7]
  IC50 of HCVpp infection (Huh-7, luciferase): 1.15 µg/mL
  IC90 of HCVpp infection (Huh-7, luciferase): 11 µg/mL
[8]
  IC50 of HCVpp infection (Huh-7, luciferase): 3 µg/mL
  IC90 of HCVpp infection (Huh-7, luciferase): > 15 µg/mL
[9]
  IC50 of HCVpp infection (Huh-7, luciferase): 0.088 µg/mL
  IC90 of HCVpp infection (Huh-7, luciferase): 1.11 µg/mL
[10]
  binding result: binds
[11]
  binding result: binds

B2: humanized AP33 antibody RHA/RK2bc (antibody, V domains shown)
VH: QVQLQESGPGLVKPSETLSLTCTVSGDSISSGYWNWIRQPPGRALEWIGYISYSGSTYYNLSLRSRVTISVDTSKNQFSLRLSSVTAADTAMYYCARITTTTYAMDYWGQGTTVTVS
VL: EIVLTQSPSSLSASVGDRVTITCRASESVDGYGNSFLHWFQQKPGKAPKLLIYLASNLNSGVPSRFSGSGSRTDFTLTISSLQPEDFATYYCQQNNVDPWTFGQGTKLEIK
notes: Human IgG1/kappa from vectors pG1D200 and pKN100, COS7 expression; also called AP33RHA/RK2bc
[10]
  binding result: binds

B3: Vh/RK2bc (antibody, V domains shown)
VH: B1 VH
VL: B2 VL
notes: COS7 supernatant; also called chimeric AP33 heavy chain Vh with humanized light chain RK2bc
[10]
  binding result: binds

B4: RHA/Vl (humanized heavy chain RHA with chimeric light chain) (antibody, V domains shown)
VH: B2 VH
VL: B1 VL
notes: Human IgG1/kappa from vectors pG1D200 and pKN100, COS7 expression
[10]
  binding result: binds

B5: humanized AP33 antibody RHI/RK2bc (antibody, V domains shown)
VH: B2 VH with S30T, Q39K, W47Y, I48M, V67I, V71R, F78Y, R97L
VL: B2 VL
notes: RHI is RHb-h with Q39K; Human IgG1/kappa from vectors pG1D200 and pKN100, COS7 expression; also called RHI (Q39K)/RK2bc
[12]
  binding result: binds

B6: RHI/Vl (humanized heavy chain RHI with chimeric light chain) (antibody, V domains shown)
VH: B2 VH with S30T, Q39K, W47Y, I48M, V67I, V71R, F78Y, R97L
VL: B1 VL
notes: as for B4
[12]
  binding result: binds
